Reference: US20030232412

Target: T1, His-tagged PprB
T1 chain: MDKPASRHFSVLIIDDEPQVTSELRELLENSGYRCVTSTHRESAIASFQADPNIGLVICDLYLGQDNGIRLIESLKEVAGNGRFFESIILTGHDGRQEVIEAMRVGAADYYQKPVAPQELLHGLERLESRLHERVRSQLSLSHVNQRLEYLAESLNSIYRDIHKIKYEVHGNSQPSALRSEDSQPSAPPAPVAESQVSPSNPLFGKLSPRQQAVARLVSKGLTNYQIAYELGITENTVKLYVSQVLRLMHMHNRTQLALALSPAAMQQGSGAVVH

B1: His-tagged PprA (protein)
chain: MFEFSRSSSAEAERPEPFSQEGPALWSASLRSWDLCFEMDEQDRVIRVGGRQAYRLQCAHGLGEQPRPFAEYLERRAPGAPTLAGLRRGERLDLTLRSDAAAPLTCRFQPMQPLDGLGRSLLLGMDISDLNWQSDSQQHQLQSLSLGKLILSRLRHVSHGHLAEAVQEILESLSGAFQMQAIALLLGDGKGFCTVFASHVRPGSDSLLRPPLQLADDDLREGAGARLLRRGEGASTLLRQIGEDALYLVPATMRGGRLGALLVRPMSLEQLAQGPAPQDWQYLAELLANQVADRCELHEQHDSSRKLGLLQEMIGGGWWRYWAEQELFELAPALHDSLGLTGEYRRVPLEHLQGLLQPADADELGLRLRASLRSGQALAQDLCLRQPDSRGERRWLRIEGRPLGRGSALGLSGVLLDISEGRRQEERAQAAHARLRSLIDSAPVVIYVQRVEQGHLVPEFYSESASNLLGLDLQGQSWQALAERVHPDDLEAFFARGRELLREGRVKTRYRLADGQGNWHWLYDEAKLLRDAQGLPSEAVGLWLDVTEQHLAAQRIAESEERYRVLVEDSPALICRYTADLVLTYVNRTFADSLATSPERLVGRRLDEWLAAEDASALRARLLGSPREGASEVPELRFNLPGQRFLWLVWAERPLFDARGELCEVQAVGRDNTPVRRAQQQLAQGAKMASLGEMVSGLAHEVKQPLHVLRMTLFNMRQRMNSVGLDGDYLGEKLERMDAQVLRVDRLVSHLGVFSRKSALEALPFDPYAAFEGALGLLGEGLRQHAIEVECPAPTQRMVVRGQADQLEQVIINLLANARDALLGNPGLASRRVRLEQVACREPGWVELHVHDNGGGIEPLLLERIFEPFFTTKAEGKGTGLGLSVSHDLVRNMGGSLTAANQGEGALFVVRLPLAAPAEAGG
B1 was tested, and the “in vitro phosphorylation assay ([gamma-32P]ATP, SDS-PAGE, autoradiography)” value was “PprA was phosphorylated; PprB was not. Notably, however, when PprA was mixed with PprB, PprB became highly phosphorylated”.
